Data as given in paper PMC3084709, “TMEFF2 Is a PDGF-AA Binding Protein with Methylation-Associated Gene Silencing in Multiple Cancer Types Including Glioma” (PLoS ONE, 2011).

Biological target: T1, recombinant human PDGF receptor α extracellular domain (PDGF sRα) (human, UniProt P16234 24-528, biotin (biotin-X-NHS) in the direct-binding ELISA on PDGF-coated wells; not said to be biotinylated in the blocking ELISA)
T1 construct: PDGF receptor α, human, extracellular domain; also called soluble PDGF receptor α; sRα-bio; source: bought: R&D Systems
Assay: ELISA; serially diluted biotinylated PDGF sRα added to PDGF-coated wells; detected with streptavidin-HRP
Details: both partners purified

T1 sequence (P16234 24-528): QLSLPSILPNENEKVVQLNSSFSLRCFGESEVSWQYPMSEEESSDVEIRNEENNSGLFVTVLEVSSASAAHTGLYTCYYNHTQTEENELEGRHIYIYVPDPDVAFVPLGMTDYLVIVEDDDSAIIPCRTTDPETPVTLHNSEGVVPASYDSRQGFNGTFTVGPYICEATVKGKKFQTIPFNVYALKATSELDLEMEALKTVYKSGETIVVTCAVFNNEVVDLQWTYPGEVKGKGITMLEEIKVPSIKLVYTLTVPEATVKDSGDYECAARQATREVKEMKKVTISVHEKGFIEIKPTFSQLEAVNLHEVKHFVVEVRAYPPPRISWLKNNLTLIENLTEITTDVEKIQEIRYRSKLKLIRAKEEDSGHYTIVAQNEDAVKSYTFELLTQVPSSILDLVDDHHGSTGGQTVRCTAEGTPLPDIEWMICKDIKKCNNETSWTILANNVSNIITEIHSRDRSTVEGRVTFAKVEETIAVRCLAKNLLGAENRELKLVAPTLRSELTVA

B1: recombinant human PDGF-BB (ligand, UniProt P01127 82-190, looked up)
chain: SLGSLTIAEPAMIAECKTRTEVFEISRRLIDRTNANFLVWPPCVEVQRCSGCCNNRNVQCRPTQVQLRPVQVRKIEIVRKKPIFKKATVTLEDHLACKCETVAAARPVT
notes: PDGF-B chain, human; homodimer; source: bought: R&D Systems
**Q.** Does B1 bind?
**A.** binds
